# Assay results reported in patent publication US20170226167A1.
# Where no end group is shown, it is not given here. [ ]: non-standard residue; d: D form. Met(O) = CS(=O)CC[C@H](N)C(=O)O; pS = N[C@@H](COP(=O)(O)O)C(=O)O
# Columns and labels:
# [1] = target: Recombinant bovine HSC70 (Stressgen) (bovine) (UniProt P19120); assay: SPR (BIAcore 3000), bovine HSC70 immobilized, peptide at 25 µM, 1:1 Langmuir fit
# [2] = target: Recombinant bovine HSC70 (Stressgen) (bovine) (UniProt P19120); assay: SPR (BIAcore 3000), bovine HSC70 immobilized, peptide at 1.56 µM, 1:1 Langmuir fit
# [3] = target: Recombinant bovine HSC70 (Stressgen) (bovine) (UniProt P19120); assay: SPR (BIAcore 3000), bovine HSC70 immobilized, peptide at 12.5 µM, 1:1 Langmuir fit
# [4] = target: Recombinant bovine HSC70 (Stressgen) (bovine) (UniProt P19120); assay: SPR (BIAcore 3000), bovine HSC70 immobilized, peptide at 3.12 µM, 1:1 Langmuir fit
# [5] = target: Recombinant bovine HSC70 (Stressgen) (bovine) (UniProt P19120); assay: SPR (BIAcore 3000), bovine HSC70 immobilized, peptide at 6.25 µM, 1:1 Langmuir fit
# [6] = target: Recombinant bovine HSC70 (Stressgen) (bovine) (UniProt P19120); assay: SPR (BIAcore 3000), bovine HSC70 immobilized, peptide as analyte, 1:1 Langmuir fit, 25 C
# Recombinant bovine HSC70 (Stressgen) (bovine), sequence (P19120 whole entry): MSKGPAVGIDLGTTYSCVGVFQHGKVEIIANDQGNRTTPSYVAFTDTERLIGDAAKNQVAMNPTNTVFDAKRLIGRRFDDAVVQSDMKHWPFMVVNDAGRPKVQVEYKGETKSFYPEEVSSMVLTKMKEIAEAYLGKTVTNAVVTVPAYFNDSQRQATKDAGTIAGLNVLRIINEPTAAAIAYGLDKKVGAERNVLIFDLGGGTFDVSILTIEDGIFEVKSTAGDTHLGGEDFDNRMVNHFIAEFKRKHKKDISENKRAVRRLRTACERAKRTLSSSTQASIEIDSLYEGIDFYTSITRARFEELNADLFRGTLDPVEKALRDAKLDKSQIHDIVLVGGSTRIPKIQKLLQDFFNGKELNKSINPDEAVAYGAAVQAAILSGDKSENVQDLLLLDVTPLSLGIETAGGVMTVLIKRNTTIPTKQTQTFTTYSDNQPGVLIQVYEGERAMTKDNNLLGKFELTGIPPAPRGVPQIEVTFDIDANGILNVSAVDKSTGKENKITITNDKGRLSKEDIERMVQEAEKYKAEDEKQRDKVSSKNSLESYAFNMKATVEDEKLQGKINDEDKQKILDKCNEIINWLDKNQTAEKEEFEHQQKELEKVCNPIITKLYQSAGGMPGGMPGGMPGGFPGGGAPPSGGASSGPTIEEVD
Binder,Ka [1],Kd [1],Req (RU) [1],kobs [1],koff [1],Ka [2],Kd [2],Req (RU) [2],kobs [2],koff [2],Ka [3],Kd [3],Req (RU) [3],kobs [3],koff [3],Ka [4],Kd [4],Req (RU) [4],kobs [4],koff [4],further results
"RIHMVYSKR[pS]GKPRGYAFIEY [P140 peptide (peptide consisting of SEQ ID NO: 1, in which serine at position 10 is phosphorylated)]",144000 M⁻¹,6.94 µM,65.2 RU,0.0144 s⁻¹,0.00312 s⁻¹,144000 M⁻¹,6.94 µM,15.3 RU,0.00382 s⁻¹,0.00312 s⁻¹,144000 M⁻¹,6.94 µM,53.6 RU,0.00874 s⁻¹,0.00312 s⁻¹,144000 M⁻¹,6.94 µM,25.8 RU,0.00452 s⁻¹,0.00312 s⁻¹,Ka [5]: 144000 M⁻¹; Kd [5]: 6.94 µM; Req (RU) [5]: 39.5 RU; kobs [5]: 0.00593 s⁻¹; koff [5]: 0.00312 s⁻¹; kon [6]: 450 M⁻¹ s⁻¹
RIH[Met(O)]VYSKR[pS]GKPRGYAFIEY,524000 M⁻¹,1.91 µM,36.3 RU,0.031 s⁻¹,0.0022 s⁻¹,524000 M⁻¹,1.91 µM,17.6 RU,0.004 s⁻¹,0.0022 s⁻¹,524000 M⁻¹,1.91 µM,33.9 RU,0.0166 s⁻¹,0.0022 s⁻¹,524000 M⁻¹,1.91 µM,24.2 RU,0.0058 s⁻¹,0.0022 s⁻¹,Ka [5]: 524000 M⁻¹; Kd [5]: 1.91 µM; Req (RU) [5]: 29.9 RU; kobs [5]: 0.0094 s⁻¹; koff [5]: 0.0022 s⁻¹; kon [6]: 1150 M⁻¹ s⁻¹
